Experimental data published in paper PMC4642984, “CRY Drives Cyclic CK2-Mediated BMAL1 Phosphorylation to Control the Mammalian Circadian Clock” (PLoS Biology, 2015).

Target: T1, ELucC-BMAL1 (mouse, UniProt Q9WTL8-2 1-625)
T1 construct: full-length mouse BMAL1 cDNA ligated downstream of ELucC; also called ELucC-BMAL1-WT (full length); ELucC-mBMAL1; source: Cos7 cells, transfected, in living cells; not shown: ELucC (C-terminal fragment of Emerald luciferase), N-terminal, kept
Experiment: split reporter (BiFC, NanoBiT); Split Luc complementation in living Cos7 cells transfected with ELucN-CK2β and ELucC-BMAL1 (WT or mutant) together with pcDNA, Myc-HA-CRY1, Myc-CRY2 or FLAG-CRY1 (WT or Cd1-4); real-time bioluminescence, averaged peak values
Conditions: partners not purified

T1 sequence (Q9WTL8 other isoform, or with tags, fused parts or gaps): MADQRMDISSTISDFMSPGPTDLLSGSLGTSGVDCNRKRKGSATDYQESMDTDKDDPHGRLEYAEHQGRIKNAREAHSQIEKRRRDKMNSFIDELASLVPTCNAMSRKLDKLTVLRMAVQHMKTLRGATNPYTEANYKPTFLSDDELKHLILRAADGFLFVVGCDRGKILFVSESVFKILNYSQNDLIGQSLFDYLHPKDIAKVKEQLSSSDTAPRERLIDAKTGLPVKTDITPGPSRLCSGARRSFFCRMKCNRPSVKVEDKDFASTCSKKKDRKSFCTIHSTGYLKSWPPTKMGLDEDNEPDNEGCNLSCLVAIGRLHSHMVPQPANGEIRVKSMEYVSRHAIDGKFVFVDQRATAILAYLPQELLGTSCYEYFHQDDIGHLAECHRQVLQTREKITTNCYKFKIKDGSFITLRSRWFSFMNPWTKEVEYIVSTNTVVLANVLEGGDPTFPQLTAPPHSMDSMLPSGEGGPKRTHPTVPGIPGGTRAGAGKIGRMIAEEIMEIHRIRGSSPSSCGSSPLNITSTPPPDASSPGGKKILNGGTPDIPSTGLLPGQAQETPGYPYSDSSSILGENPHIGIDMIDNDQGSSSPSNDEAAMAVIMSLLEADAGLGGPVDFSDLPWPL

B1: ELucN-CK2β (natural protein)
chain: not shown
notes: full-length human CK2β cDNA ligated downstream of ELucN; Vector backbone pcDNA4/V5-His (B) or pcDNA3.1; also called CMV-ELucN-CK2β; source: Cos7 or U-2OS cells, transfected, in living cells; not shown: ELucN (N-terminal fragment of Emerald luciferase), N-terminal, kept
fold increase of Split Luc bioluminescence in the presence of CRY proteins: ~4 fold
fold increase of Split Luc bioluminescence on over-expression of Myc-tagged CRY1 or CRY2: ~6 fold
